Patent publication US7897568B2, “Compositions for treatment of cancer” (priority 2006, dated 2011)
Where a SMILES comes first, the peptide text is derived from it. Where no end group is shown, it is not given here.

Experiments:
Type in all cases: binding
[1] = biological target: T1, GST-SNCG (Homo sapiens, UniProt O76070); test: GST pull-down of EGFP-ANK with GST-SNCG; conditions: FIG. 5D, GST as control
T1 construct: The SNCG coding region was amplified from the human cDNA clone; made in house; host or cells: Escherichia coli BL21 (DE3)
T1 sequence (O76070 whole entry): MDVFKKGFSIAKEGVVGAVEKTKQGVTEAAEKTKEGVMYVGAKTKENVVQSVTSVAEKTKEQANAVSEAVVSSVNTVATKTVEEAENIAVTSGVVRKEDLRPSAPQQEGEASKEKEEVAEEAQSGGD
Source text: FIGS. 5A through 5D show co-localization, co-immunoprecipitation (co-IP) and GST pull down experiments, using an enhance green fluorescent protein (EGFP)-ANK fusion protein, which confirm that SNCG associates with the ANK peptide in vivo. FIG. 5A is a western blot depicting detection of EGFP-ANK expression in COS7 cells. Lanes 2 and 3 were samples transfected with different clones, cl-4 and cl-8, respectively, of pEGFP-ANK plasmid. In FIG. 5B, MCF7-SNCG cells were transfected with pEGFP-ANK, fixed on a cover slip, permeabilized and probed with anti-SNCG and anti-GFP antibodies to observe co-localization. Fluorescent cells were visualized using an ×100 objective (oil) on an inverted confocal microscope (Leica). FIGS. 5C and 5D are western blots showing association of SNCG and ANK peptide as evidenced by co-IP of SNCG with EGFP-ANK in MCF7-SNCG and MCF7-neo cells. In these experiments, MCF7-SNCG and MCF7-neo cells were transfected with pEGFP-ANK or pEGFP plasmids. […]
GST-SNCG (20 μg) protein or GST alone was added to a pre-equilibrated slurry of glutathione-sepharose 4B and incubated for 60 minutes. […] After extensive washes, the beads were collected, boiled in sample buffer, separated on 12% SDS gel and analyzed by western blotting. […]

[2] = biological target: SNCG (Homo sapiens, UniProt O76070); test: Co-immunoprecipitation of EGFP-ANK with anti-SNCG antibody; set-up: expressed in transfected cells; host or cells: MCF7-SNCG (MCF7 stably expressing SNCG)
Chain of SNCG (O76070 whole entry): as above

[3] = biological target: GST (Schistosoma japonicum, UniProt P08515); test: Surface plasmon resonance control with GST as analyte; conditions: SPR, GST as the analyte
Chain of GST (P08515 whole entry): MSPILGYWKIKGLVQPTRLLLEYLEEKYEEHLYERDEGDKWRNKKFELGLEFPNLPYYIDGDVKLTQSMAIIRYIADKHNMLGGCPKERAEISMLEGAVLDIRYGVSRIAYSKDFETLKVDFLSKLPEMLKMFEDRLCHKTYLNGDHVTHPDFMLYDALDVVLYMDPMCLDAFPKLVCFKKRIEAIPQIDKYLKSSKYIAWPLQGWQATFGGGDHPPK
Experimental: Kinetics of the SNCG-ANK interaction were determined. […] Sensograms were deconvoluted globally, using a simultaneous fit for both association (ka, M^−1s^−1) and dissociation (kd, s^−1).
The binding interaction between the ANK peptide and GST-SNCG was examined in real time using a BIACORE 3000 biosensor system (Biacore Inc., NJ). Because of the relatively large amount required in this experiment, GST-SNCG, which expresses at least 2 times better than SNCG, was used. […] The changes in the refractive index at the sensor chip surface with respect to time are scaled in resonance units (RU). For proteins, every 1000 RU corresponds to a surface mass change of ˜1 ng/mm^2. All experiments were performed at 25° C. using research grade carboxymethylated dextran matrix (CM5) sensor chips (Biacore Inc.). […] Prior to all analyses the GST-SNCG and ANK peptide preparations were dialyzed against the running buffer to minimize bulk effects. Blank analyte injections (running buffer only) were subtracted from the specific binding isotherms to further minimize instrument noise.

Row | Molecule | pull down by GST-SNCG [1] | co-precipitation with SNCG in anti-SNCG IP complexes ([2]; MCF7-SNCG cells transfected with pEGFP-ANK, western blot with anti-GFP) | presence in anti-SNCG IP complexes ([2]; MCF7-neo cells (SNCG negative control)) | binding of GST analyte to immobilized ANK peptide [3]
1 | EGFP-ANK: ANK peptide expressed as a fusion protein with its amino-terminal linked to EGFP protein, approximately 37 kDa ({EGFP}-KGNSALHVASQHGHLGCIQTLVRYGANVTMQNHG) | SNCG is capable of immunoprecipitating EGFP-ANK | co-precipitate with SNCG | not in the IP complexes | –
2 | CC[C@H](C)[C@H](NC(=O)[C@H](CS)NC(=O)CNC(=O)[C@H](CC(C)C)NC(=O)[C@H](Cc1c[nH]cn1)NC(=O)CNC(=O)[C@H](Cc1c[nH]cn1)NC(=O)[C@H](CCC(N)=O)NC(=O)[C@H](CO)NC(=O)[C@H](C)NC(=O)[C@@H](NC(=O)[C@H](Cc1c[nH]cn1)NC(=O)[C@H](CC(C)C)NC(=O)[C@H](C)NC(=O)[C@H](CO)NC(=O)[C@H](CC(N)=O)NC(=O)CNC(=O)[C@H](CCCCN)NC(C)=O)C(C)C)C(=O)N[C@@H](CCC(N)=O)C(=O)N[C@H](C(=O)N[C@@H](CC(C)C)C(=O)N[C@H](C(=O)N[C@@H](CCCNC(=N)N)C(=O)N[C@@H](Cc1ccc(O)cc1)C(=O)NCC(=O)N[C@@H](C)C(=O)N[C@@H](CC(N)=O)C(=O)N[C@H](C(=O)N[C@H](C(=O)N[C@@H](CCSC)C(=O)N[C@@H](CCC(N)=O)C(=O)N[C@@H](CC(N)=O)C(=O)N[C@@H](Cc1c[nH]cn1)C(=O)NCC(N)=O)[C@@H](C)O)C(C)C)C(C)C)[C@@H](C)O [ANK peptide] (Ac-KGNSALHVASQHGHLGCIQTLVRYGANVTMQNHG-NH2) | – | – | – | No binding
